Biological target: T1, p53 wild type peptide on HLA-A*02:01 (human)
T1 peptide: HMTEVVRRC
Experiment: activation reporter or marker

binding result: no recognition
B1: p53R175H peptide specific TCR (the inventive TCR) (TCR, V domains shown)
Valpha: GIQVEQSPPDLILQEGANSTLRCNFSDSVNNLQWFHQNPWGQLINLFYIPSGTKQNGRLSATTVATERYSLLYISSSQTTDSGVYFCAVNQAGTALIFGKGTTLSVSS
Vbeta: EPEVTQTPSHQVTQMGQEVILRCVPISNHLYFYWYRQILGQKVEFLVSFYNNEISEKSEIFDDQFSVERPDGSNFTLKIRSTKLEDSAMYFCASMGTGDEAFFGQGTRLTVV
